Experimental data: patent US6218600A, “Structure and expression of the biotin carboxylase subunit of heteromeric acetyl-CoA carboxylase” (Board of Trustees Operating Michigan State University, priority 1996, dated 2001)

Legend:
Castor Endosperm ACCase = test: ACCase activity assay, castor endosperm extract, with metabolites of fatty acid synthesis; type: biochemical, castor (Ricinus Communis L.); details: mean of duplicate determinations ± standard deviation, 15 min
Pea Chloroplast ACCase = test: ACCase activity assay, pea chloroplast enzyme partially purified by gel permeation, with metabolites of fatty acid synthesis; type: biochemical, pea (Pisum sativum); details: mean of duplicate determinations ± standard deviation, 15 min

Molecule | Castor ACCase Activity (% of Control) (Castor Endosperm ACCase; 10 μM addition) | Pea ACCase Activity (% of control) (Pea Chloroplast ACCase; 1 μM addition) | Pea ACCase Activity (% of control) (Pea Chloroplast ACCase; 3 μM addition) | Pea ACCase Activity (% of control) (Pea Chloroplast ACCase; 10 μM addition) | Castor ACCase Activity (% of Control) (Castor Endosperm ACCase; 5 μM addition)
CCCCCCCC/C=C\CCCCCCCC(=O)O [18:1, Oleic acid, reference compound] | 72 ± 10 % of Control | – | – | – | –
CCCCCCCCCCCCCCCC(=O)O [16:0, reference compound] | 97 ± 8 % of Control | – | – | – | –
16:0-ACP: long-chain acyl-ACP synthesized from radioactive 16:0 fatty acid and recombinant spinach ACP-I (conjugate, UniProt P07854 57-138, looked up, radiolabeled palmitoyl (16:0) acyl thioester) Acyl carrier protein 1, …: AKKETIDKVCDIVKEKLALGADVVVTADSEFSKLGADSLDTVEIVMNLEEEFGINVDEDKAQDISTIQQAADVIESLLEKKA | 75 ± 3 % of Control | 98 ± 2 % of control | 91 ± 4 % of control | 77 ± 4 % of control | –
18:1-ACP: long-chain acyl-ACP synthesized from radioactive 18:1 fatty acid and recombinant spinach ACP-I (conjugate, UniProt P07854 57-138, looked up, radiolabeled oleoyl (18:1) acyl thioester) Acyl carrier protein 1, …: AKKETIDKVCDIVKEKLALGADVVVTADSEFSKLGADSLDTVEIVMNLEEEFGINVDEDKAQDISTIQQAADVIESLLEKKA | 63 ± 11 % of Control | 97 ± 1 % of control | 87 ± 3 % of control | 79 ± 14 % of control | 81 ± 9 % of Control
